The values below come from the DeepSol protein solubility set.

This data set is described as follows: soluble on expression in E. coli; label from the status in PepcDB or PDB records.
For the sequence “SLPRDENMPLIQVIDDDVSMLILLKDALESKGWMVMANTEPEKAVDQFFDMNPDCLIIDVNLPGKSGFHVLEDIQKHTNKKFIPKLMISIMNDRETRIKAYRLGADDFISKPIDLEEFLIKVERHLDRKQIFDQSVLIDELTQVYNRRFLKDSLKRYLKELERSNQYFSIAVLDLDHFKQVNDMYGHPAGDRILSEFAQYLKDHVRIGDIVFRYGGEEFILLLPRTNDHDSKEVVSRLLSGFSSRTFIEGGAELKMTFSAGVYMVHDPSATVAEAIKTADQALYKAKRNGRARVESANKLIGGHSRKVLNVSVIDDDAIIRTMLMKILQSMEFEHTSLDIQVYEDGQKFLQSGRMEQKGEHFLILDGIMPVMDGTEVLQKVKENRNASRVHVLMLTGRKTEYDIARALKLGADDYVTKPFSITELQARIHRLIQRMSEG”, the “soluble on expression in E. coli” value is on record as “soluble”.

Turning to “MGSITENTSWNKEFSAEAVNGVFVLCKSSSKSCATNDLARASKEYLPASTFKIPNAIIGLETGVIKNEHQVFKWDGKPRAMKQWERDLTLRGAIQVSAVPVFQQIAREVGEVRMQKYLKKFSYGNQNISGGIDKFALEGQLRISAVNQVEFLESLYLNKLSASKENQLIVKEALVTEAAPEYLVHSKTGFSGVGTESNPGVAWWVGWVEKETEVYFFAFNMDIDNESKLPLRKSIPTKIMESEGIIGG”, the “soluble on expression in E. coli” value is “soluble”.

With “DRLTVVKQYVDNVLNKASDTYHGDKPSPLLADGVDPRTGQQLEWIFPDGRRAVLSNFSAQQNLMRVMSGLSQLSGDPRYQKRAEDIVRYHFQNYQDPSGLLYWGGHRFVDLKTLQPEGPSEKEMVHELKNAYPYYDLMFSVDSDATARFIRGFWNAHVYDWRILETSRHGEYGKPMGALWESKFEQQPPFFATKGLSFLNAGNDLIYSASLLYKHQQDQGALTWAKRLADQYVLPRDAKTGLGVYQFTQALKREEPTDDADTHSKFGDRAQRQFGPEFGPTALEGNMMLKGRTSTLYSENALMQLQLGKDLGPQGQDLLKWTVDGLKAFAKYAYNDQDNTFRPMIANGQDLSNYTLPRDGYYGKKGTVLKPYKAGNEFLISYARAYAIDNDPLLWKVARGIANDQGLGDIGTAPGKEVKVNMDTTNSDPYALFALLDLYHASQVADYRKLAEKIGDNIIKIRYIDGFFMASSDRQYADVDAIEPYALLALEASLRNKPQAVAPFLNGAGFTEGAYRMDDGSARVSTRDNELFLLNVGEKLQPN”, the “soluble on expression in E. coli” value was “soluble”.

Turning to “RNMDASPLAKRNSLQLFTDGQEKFQALFEDIRAAKETVHVEYYAFFNDTIGNQFLDVLIEKLHEGVEVYLIYDPWGSPGANKKFFARYVDAGGKVAPFITSRDMIRKTRLNYHLHRKIVVIDGKIGWTGGFNVGDQYLNVTEKFGYWRDTHIRLVGTAVFSLQEIFIMDWNASVKYPEERMTYHEKYFKLPEDHEVEHLSLQVVSDGPDSEEEILKSG”, the “soluble on expression in E. coli” value was “not soluble”.

Take “MKRLLLYVHFNKYNRVSSHVVYQLTQMRSLFSKVIFISNSQVADADVKMLREKHLIDDFIQRQNSGFDFAAWRDGMVFVGFDELVTYDSVTTMNDTCFGPLWEMYSIYQEFETKTTVDFWGLTNNRATKSFREHIQSYFISFKASVLRSTAFRDFWENIKEYQDVQKVIDQYETKVTTTLLDAGFQYDVVFDTTKEDASHMLHADFSYYNPTAILNHRVPFIKVKAIDNNQHITPYLLNDIQKNSTYPIDLIVSHMSEINYPDFSYLLGHKYVKKRERVDLKNQKAAVHLHVFYVDLLEEFLTAFKQFHFSYDLFITTDSDDKKAEIEEILSANSQEAQVFVTGNIGRDVLPMLKLKNYLSTYDFVGHFHTKKSKEADFWAGQSWREELIDMLVKPADNILAQLQQNPKIGLVIADMPTFFRYNKIVDAWNEHLIAPEMNTLWQKMGMTKKIDFNAFHTFVMSYGTFVWFKYDALKPLFDLNLTDDDVPEEPLPQNSILHAIERLLIYIAWNEHYDFRISLEHHHHHH”: the “soluble on expression in E. coli” value was “not soluble”.

As to “MHPRSKLSQAQRELAVDLFEEGYGSRAVANRLGVRREQVRHLEDRFRLHGRLCLVSKPTKKQYSFDTKMEILRRYRTGELKSDLAKEYGLSSPNLISHWVWQVNKGGSDALQPKPKGRPKGSGQSVPMTEEDTLRRENELLKAEVAYLKKLRDLREQRRG”, the “soluble on expression in E. coli” value is on record as “not soluble”.

For “SNAMNPIEFWFDFSSGYAFFAAQRIEALAAELGRTVLWRPYMLGAAFSVTGARGLSSTPLKRDYAQRDWARIARQRGLTFRPPADHPHVALAATRAFYWIEAQSPDAATAFAQRVFDLYFSDRLDTASPEAVSRLGPEVGLEPEALLAGIADPALKETVRKIGEDAVARGIFGSPFFLVDDEPFWGWDRMEMMAEWIRTGGW”, the “soluble on expression in E. coli” value was “soluble”.

Turning to “MWGQTNMADKKSPLIAVSVGEASGDLLGAHLIRAIRKRCPQARFTGIGGELMKAEGFESLYDQERLAVRGFVEVVRRLPEILRIRRGLVRDLLSLKPDVFVGIDAPDFNLGVAEKLKRSGIPTVHYVSPSVWAWRRERVGKIVHQVNRVLCLFPMEPQLYLDAGGRAEFVGHPMAQLMPLEDDRETARQTLGVDAGIPVFALLPGSRVSEIDYMAPVFFQTALLLLERYPAARFLLPAATEATKRRLAEVLQRPEFAGLPLTVIDRQSETVCRAADAVLVTSGTATLEVALCKRPMVISYKISPLTYAYVKRKIKVPHVGLPNILLGKEAVPELLQSEAKPEKLAAALADWYEHPDKVAALQQDFRALHLLLKKDTADLAARAVLEEAGC”, the “soluble on expression in E. coli” value was “not soluble”.

On to “MGSDKIHHHHHHMTQTPVTLDQKVGEKRDRMRGVFSTQEIRKVGTGTTTRKTIQKSFWYVDEGDDGVIEVQPLNSNYVPSGPKRKIDRDELLDKFAPEPEFYVQTVFPKMRELNKTIARADRHRQKGETFSAEFEYNNALKVDEENVRANFGIGLTYLERGETDKADNIFERLVKLDAAFEEEHKHLFNEFGINLRKSKMYDQAVEYYGRALELSQGDENLHLNVARAYLEKQDFPHCLEHVLRALMINPAHEAGLKFLAWMEAKKLVPEDQRAAVAEAVARARSTGGTPASAANEG”, for which the “soluble on expression in E. coli” value was “not soluble”.

In the case of “MAHHHHHHMVFYSFVLVMKPRQRRFTSQALREIGVAVYSNGGLIRSITNEGIMRPYSRFRDADNTPLTYARYIILQLDMGEEEMGKVDKIIREHQDVLMALKLNNLERPVGIRSGNKELQAAYFPLDTFTRLEEEINWSPQTSADIYTQLEMNWKEFSRTRWSSFLRN”, the “soluble on expression in E. coli” value was “not soluble”.

With “MHHHHHHSSGVDLGTENLYFQSMGLSRVRAVFFDLDNTLIDTAGASRRGMLEVIKLLQSKYHYKEEAEIICDKVQVKLSKECFHPYNTCITDLRTSHWEEAIQETKGGAANRKLAEECYFLWKSTRLQHMTLAEDVKAMLTELRKEVRLLLLTNGDRQTQREKIEACACQSYFDAVVVGGEQREEKPAPSIFYYCCNLLGVQPGDCVMVGDTLETDIQGGLNAGLKATVWINKNGIVPLKSSPVPHYMVSSVLELPALLQSIDCKVSMST”, the “soluble on expression in E. coli” value is reported as “soluble”.

Regarding “MGSDKIHHHHHHMENQTGIFNSYKIDPAHFDEAWLPTGDVRMHYKHLMETFKGLDIEEYLKINELAKGNLFNQGVTFNVYSENAEGVERLFPFDLFPRMIPSEEWKTIEVGIKQRNKAINLFLWDIYHEQKILKDKIVPSELLFSSQFYKKEMIGVDPPAGIYIHITGTDIIKHNDGKYYVLEDNLRCPSGVSYVLSNRETMKKIFFNLFSRYHVKPIMQYTEKLLSTIRSVAPDRIDNPLCVILTPGTYNSAYFEHSFLAHQMGIQLVEGRDLFVEKNFVYMKTIKGPKRVDVIYRRVDDDFIDPLVFNPKSVLGVPGLMSAYQAGNVTIINAPGTGVADDKAVYTYVPDIIKYYLGEEPILNNVPTYRCERPDEMKYVLENMHNLVVKPVDESGGYGVFIGNRKTKEEIEEYKKLILDTPRKYIAQPIMSLSVLSTFIEDSNESEQRHIDLRSFALMGKEETYVLDGGLTRVALSKGNLIVNSSQGGGSKDTWVIENY”, the “soluble on expression in E. coli” value is “not soluble”.

On to “MGDGKPHTAQQTIPYLQMYPDGICRVTEKKYSKSLVFEDINYQLAQADDKTAIFENWCDFLNYFDASVSVQLSFINQGARQEKAQAAIEIPAQDDAFNSIRKEYADMLKNQLEKGNNGLEKCKYITFSIEADNLAAAKARLSRIETDVLNNFKVLGVTARPMNGQERLNVLHGIFHPAGEPFRFSWDWLVPSGLTTKDFIAPSSFHFGDGRTFRMGKKLGAVSFLEILAPELNDRMLSDILDLENGIIVNLHIRSIDQSEAIKTIKRKITDLDKMKIEEQKKAVRSGYDMDIIPSDLATFGSEAKNLLQDLQSRNERMFLLTFLVANMADTKRKLENDIFATAGFAQKNNCALTRLDYLQEAGFMSSIPLGENLIPIQRGLTTSSTAIFIPFITQELFQRGAALYYGLNALSNNMILCDRKQLKNPNGLILGTPGSGKSFAAKREITNIFLITDDDIIICDPEAEYYPLVERLHGQVVHISPTSRHYVNPMDINLNYSEDDNPLALKSDFILSLCELVIGGKEGLQPVEKTVIDRAVRNVYRPFLADPDPAKMPILGDLYNELLKQPEPEAARIAAALELYVSGSLNVFNHRTNVELSNRLVCFDIKQLGKQLKKLGMLIVQDQVWNRVTLNRAEKKATRYYMDEFHLLLKEEQTAAYSVEIWKRFRKWGGIPTAITQNVKDLLSSREVENIFENSDFVLMLNQAQGDRAILAKQLNISPQQMKYVTHTEAGEGLIFYGNVVLPFIDRFPTNTELYRLLTTKPEEVSKPLEHHHHHH”, for which the “soluble on expression in E. coli” value is recorded as “soluble”.

Turning to “MGSDKIHHHHHHMKITLNSVSFRYNGDYVLKDVNAEFETGKIYVVVGKNGSGKTTLLKILAGLLEAEGEIFLDGSPADPFLLRKNVGYVFQNPSSQIIGATVEEDVAFSLEIMGLDESEMRKRIKKVLELVGLSGLEKEDPLNLSGGQKQRLAIASMLARDTRFLALDEPVSMLDPPSQREIFQVLESLKNEGKGIILVTHELEYLDDMDFILHISNGTIDFCGSWEEFVEREFDDVEIPFKWKLWKKCGKINLWEDRYENSGNQRRRDTV”, the “soluble on expression in E. coli” value is listed as “not soluble”.

As for “MSLKTYKGYLIDLDGTMYNGTEKIEEACEFVRTLKDRGVPYLFVTNNSSRTPKQVADKLVSFDIPATEEQVFTTSMATAQHIAQQKKDASVYVIGEEGIRQAIEENGLTFGGENADFVVVGIDRSITYEKFAVGCLAIRNGARFISTNGDIAIPTERGLLPGNGSLTSVLTVSTGVQPVFIGKPESIIMEQAMRVLGTDVSETLMVGDNYATDIMAGINAGMDTLLVHTGVTKREHMTDDMEKPTHAIDSLTEWIPYIEGHHHHHH”, the “soluble on expression in E. coli” value was “soluble”.

As to “MGSDKIHHHHHHMNSGEYKYIWQASDWPNWRFDLAALAEPMAEVSRAQGLLMGRLADVGMALRDQASLAALTEDVVKTSEIEGEQLNVESVRSSIARRLGVDIGALAPVDRHVEGVVEMVLDATANCQALVSRERLFGWHAALFPTGYSGLSKINVGGWRDDATGPMQVVSGPIGRQRVHFEAPPADRLETETSRFLDWLNGTLNEPPLLKAGLGHLWFVTLHPFDDGNGRIARAIGDLLLARADGSPQRFYSLSAQIQRERKAYYDILERTQKRSMDVTEWLAWFLDTLHRAVDQAQHTLDAVLTKARFWQRWATTPLNERQVKLLNKLLDGFEGKLTSSKWAAIAKCSPDTALRDINDLLTRGVLRKSDAGGRSTSYELNDLPE”, the “soluble on expression in E. coli” value was “not soluble”.

For “MAHHHHHHMRPTFPALGSRAKGYENRVMVYAHRRHRAWYLPPKLAHARSPLANKSPDEYGNTWDPRTGVEWYHRLRRRGAYRHWPWARWNDDPVRQHQELSCRRTFSAAVTGANEGVPLWNYYAEVGQEYGLPSHFPLSFMAPFIHQYTSRAWSRKEIERHLKVVEERTGLRTIQQACDATSELLEWGEEEMGVVPHGLLQHVVMLAEDIVLQNKKKAYRKAAHERGILRTTTMERYYALPHLRTGPPMPTTLEQPSGEFPWGKFSTMVGGTRIHPLYRPDGFFKDNMYPA”, the “soluble on expression in E. coli” value was “not soluble”.
